From the supplement of paper PMC7125110
± gives the standard error. For some assays here: This sample holds only a part of the variants without activity.

B1: glmS ribozyme (parent)
chain: AUAAAAGCGCCAGAACUACAGAAAUGUAGUUGACGAGGAGGAGGUUUAUCGAAUUUUCGGCGGAUGCCUCCAAA

Experiments:
Conditions in all cases: with glucosamine-6-phosphate
glucosamine-6-phosphate [1] = variants of: B1; experiment: kcat; higher = faster cleavage; RNA array
Procedure, shortened: (§1)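 Glucosamine-6-phosphate in HEPES/KCl/Mg(OAc)2 buffer, at 40 μM to 10 mM, was flowed over barcoded ribozyme variants transcribed in situ by E. coli RNA polymerase on sequenced MiSeq chips. Tracking was through a hybridised Cy3 probe at 37 °C. kobs, kcat and KM came from exponential decay fits and weighted Michaelis–Menten fits of normalised per-tile medians.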

glucosamine-6-phosphate [2] = variants of: B1; experiment: KM; higher = weaker cofactor use; RNA array
Procedure, shortened: as §1

glucosamine-6-phosphate [3] = variants of: B1; experiment: self-cleavage kobs at 40 uM GlcN6P; higher = faster cleavage; RNA array
Procedure, shortened: as §1

glucosamine-6-phosphate [4] = variants of: B1; experiment: self-cleavage kobs at 160 uM GlcN6P; higher = faster cleavage; RNA array
Procedure, shortened: as §1

glucosamine-6-phosphate [5] = variants of: B1; experiment: self-cleavage kobs at 640 uM GlcN6P; higher = faster cleavage; RNA array
Procedure, shortened: as §1

glucosamine-6-phosphate [6] = variants of: B1; experiment: self-cleavage kobs at 2500 uM GlcN6P; higher = faster cleavage; RNA array
Procedure, shortened: as §1

glucosamine-6-phosphate [7] = variants of: B1; experiment: self-cleavage kobs at 10000 uM GlcN6P; higher = faster cleavage; RNA array
Procedure, shortened: as §1

AUAAAAGCGCCAGAACUACAGAAAUGUAGUUGACGAGGAGGAGGUUUAUAGAAUUGUCGGCGGAUGCCUCCAAA
kcat (glucosamine-6-phosphate [1]): < 1e-05 s⁻¹

AUAAAAGCGCCAGAACUACAGAAAUGUAGUUGACGAGGAGGAGGUUUAUCGAAUUUUCGGUGGAUGCCUCUAAA
kcat (glucosamine-6-phosphate [1]): 2.55e-05 ± 4.8e-07 s⁻¹
KM (glucosamine-6-phosphate [2]): 2880 ± 200 µM
self-cleavage kobs at 40 uM GlcN6P (glucosamine-6-phosphate [3]): < 1e-05 s⁻¹
self-cleavage kobs at 160 uM GlcN6P (glucosamine-6-phosphate [4]): < 1e-05 s⁻¹
self-cleavage kobs at 640 uM GlcN6P (glucosamine-6-phosphate [5]): < 1e-05 s⁻¹

AUAAAAGCGCCAGAACUACAGAAAUGUAGUUGACGAGGCGGAGGUUUAUCGAAUUUACGGCGGAUGCCUCCAAA
kcat (glucosamine-6-phosphate [1]): 2.13e-05 ± 6e-06 s⁻¹
self-cleavage kobs at 40 uM GlcN6P (glucosamine-6-phosphate [3]): < 1e-05 s⁻¹
self-cleavage kobs at 2500 uM GlcN6P (glucosamine-6-phosphate [6]): 2.6e-05 ± 1.3e-05 s⁻¹

AUAAAAUCGCCAGAACUACAGAAAUGUAGUUGACGACGAGGAGGUUUAUCGAAUUUUCGGCGGAUGCCUCCAAA
kcat (glucosamine-6-phosphate [1]): < 1e-05 s⁻¹
self-cleavage kobs at 40 uM GlcN6P (glucosamine-6-phosphate [3]): < 1e-05 s⁻¹
self-cleavage kobs at 640 uM GlcN6P (glucosamine-6-phosphate [5]): < 1e-05 s⁻¹

AUAAAAGCGCGAGAACUACAGAAAUGUAGUUGACGAGGAGGAGGUUUAUCGAAUUUUCAGCGGAUGCCUCCAAA
kcat (glucosamine-6-phosphate [1]): 0.000401 ± 1.7e-05 s⁻¹
KM (glucosamine-6-phosphate [2]): 8670 ± 560 µM
self-cleavage kobs at 640 uM GlcN6P (glucosamine-6-phosphate [5]): 2.81e-05 ± 1e-05 s⁻¹
self-cleavage kobs at 2500 uM GlcN6P (glucosamine-6-phosphate [6]): 8.92e-05 ± 1.8e-05 s⁻¹
self-cleavage kobs at 10000 uM GlcN6P (glucosamine-6-phosphate [7]): 0.000215 ± 3.6e-05 s⁻¹

AUAAAAGCGCCAGAAUUACAGAAAUGUAGUUGAAGAGGAGGAGGUUUAUGGAAUUCUCGGCGGAUGCCUCCAAA
kcat (glucosamine-6-phosphate [1]): 1.31e-05 ± 1.9e-06 s⁻¹

AUAAAAGCGCCAGAACUACAGAAAUGUAGUUGACGAGGAGGAGGAUUAUCGAUUUUUCGGCGGAUGCCUCCAAA
kcat (glucosamine-6-phosphate [1]): 0.054 ± 0.013 s⁻¹
KM (glucosamine-6-phosphate [2]): 1720 ± 500 µM
self-cleavage kobs at 40 uM GlcN6P (glucosamine-6-phosphate [3]): 0.00125 ± 0.00017 s⁻¹
self-cleavage kobs at 160 uM GlcN6P (glucosamine-6-phosphate [4]): 0.00351 ± 0.0016 s⁻¹
self-cleavage kobs at 640 uM GlcN6P (glucosamine-6-phosphate [5]): 0.0162 ± 0.0071 s⁻¹
self-cleavage kobs at 2500 uM GlcN6P (glucosamine-6-phosphate [6]): 0.0671 ± 0.03 s⁻¹
self-cleavage kobs at 10000 uM GlcN6P (glucosamine-6-phosphate [7]): 0.0432 ± 0.012 s⁻¹

AUAAAAGCGCCAGAACUACAGAAAUGUAGUUGGCGAGGAGGAGGUUUAUCGAAUUUUCGGCGGGUGCCUCCAAA
kcat (glucosamine-6-phosphate [1]): < 1e-05 s⁻¹
KM (glucosamine-6-phosphate [2]): 484 ± 28 µM
self-cleavage kobs at 40 uM GlcN6P (glucosamine-6-phosphate [3]): < 1e-05 s⁻¹
self-cleavage kobs at 10000 uM GlcN6P (glucosamine-6-phosphate [7]): < 1e-05 s⁻¹

AUAAAAGCGCCAGAACUACAGAAAUGUAGUUGACGAGGAGGAGGUUCAUCGAAUUAUCGGCGGAUGCCUCCAAA
kcat (glucosamine-6-phosphate [1]): 0.00197 ± 0.00092 s⁻¹
self-cleavage kobs at 40 uM GlcN6P (glucosamine-6-phosphate [3]): 3.94e-05 ± 9.3e-06 s⁻¹
self-cleavage kobs at 160 uM GlcN6P (glucosamine-6-phosphate [4]): 8.88e-05 ± 1.6e-05 s⁻¹
self-cleavage kobs at 640 uM GlcN6P (glucosamine-6-phosphate [5]): 0.000985 ± 0.00018 s⁻¹
self-cleavage kobs at 2500 uM GlcN6P (glucosamine-6-phosphate [6]): 0.00159 ± 0.00039 s⁻¹
self-cleavage kobs at 10000 uM GlcN6P (glucosamine-6-phosphate [7]): 0.00143 ± 0.00023 s⁻¹

AUAAAAGCGCCAGAACUACAGAAAUGUAGUUGACGAGGAGGAGGUUCAUCGAAUUUUCGGCGGAUGCCUCAAAA
kcat (glucosamine-6-phosphate [1]): 0.00134 ± 0.00043 s⁻¹
self-cleavage kobs at 40 uM GlcN6P (glucosamine-6-phosphate [3]): 4.8e-05 ± 2e-05 s⁻¹
self-cleavage kobs at 160 uM GlcN6P (glucosamine-6-phosphate [4]): 4.4e-05 ± 1.9e-05 s⁻¹
self-cleavage kobs at 640 uM GlcN6P (glucosamine-6-phosphate [5]): 0.000204 ± 4.2e-05 s⁻¹
self-cleavage kobs at 2500 uM GlcN6P (glucosamine-6-phosphate [6]): 0.000441 ± 0.00011 s⁻¹
self-cleavage kobs at 10000 uM GlcN6P (glucosamine-6-phosphate [7]): 0.00101 ± 0.00017 s⁻¹

AUAAAAGCGCCAGAACUACAGAAAUGUAGUUGACGAGGAGGAGGUUUAUCGAAUAUUCGGCGGAGGCCUCCAAA
kcat (glucosamine-6-phosphate [1]): 0.00556 ± 0.0024 s⁻¹
self-cleavage kobs at 40 uM GlcN6P (glucosamine-6-phosphate [3]): 7.69e-05 ± 2.5e-05 s⁻¹
self-cleavage kobs at 160 uM GlcN6P (glucosamine-6-phosphate [4]): 0.000125 ± 4.4e-05 s⁻¹
self-cleavage kobs at 640 uM GlcN6P (glucosamine-6-phosphate [5]): 0.000517 ± 0.0001 s⁻¹
self-cleavage kobs at 2500 uM GlcN6P (glucosamine-6-phosphate [6]): 0.00303 ± 0.001 s⁻¹
self-cleavage kobs at 10000 uM GlcN6P (glucosamine-6-phosphate [7]): 0.00343 ± 0.00072 s⁻¹

AUAAAAGCGCCAGAACUACAGAAAUGUAGUUGACUAGGAGGAGGUUUAUCCAAUUUUCGGCGGAUGCCUCCAAA
kcat (glucosamine-6-phosphate [1]): < 1e-05 s⁻¹
self-cleavage kobs at 160 uM GlcN6P (glucosamine-6-phosphate [4]): < 1e-05 s⁻¹
self-cleavage kobs at 640 uM GlcN6P (glucosamine-6-phosphate [5]): < 1e-05 s⁻¹

AUAAAAGCGCCAGAACUACAGAAAUGUAGUUGACGAGGAGGAGGUUUAUCGAAUGUUCGGCUGAUGCCUCCAAA
kcat (glucosamine-6-phosphate [1]): < 1e-05 s⁻¹
self-cleavage kobs at 160 uM GlcN6P (glucosamine-6-phosphate [4]): < 1e-05 s⁻¹
self-cleavage kobs at 10000 uM GlcN6P (glucosamine-6-phosphate [7]): < 1e-05 s⁻¹

AUAAAAGCGCCAGAACUACAGAAAUGUAGGUGACGAGGAGGAGGUUUAUCGAAUCUUCGGCGGAUGCCUCCAAA
kcat (glucosamine-6-phosphate [1]): 0.00519 ± 0.00037 s⁻¹
KM (glucosamine-6-phosphate [2]): 883 ± 120 µM
self-cleavage kobs at 40 uM GlcN6P (glucosamine-6-phosphate [3]): 0.000236 ± 5e-05 s⁻¹
self-cleavage kobs at 640 uM GlcN6P (glucosamine-6-phosphate [5]): 0.00192 ± 0.00068 s⁻¹
self-cleavage kobs at 2500 uM GlcN6P (glucosamine-6-phosphate [6]): 0.00363 ± 0.00086 s⁻¹
self-cleavage kobs at 10000 uM GlcN6P (glucosamine-6-phosphate [7]): 0.00502 ± 0.00092 s⁻¹

AUAAAAGCGCCAGAUCUACAGAAAUGUAGUUGACGAGGAGGAGGUUUAUCGAAUUUUCGGCGAAUGCCUCCAAA
kcat (glucosamine-6-phosphate [1]): < 1e-05 s⁻¹
self-cleavage kobs at 10000 uM GlcN6P (glucosamine-6-phosphate [7]): < 1e-05 s⁻¹

AUAAAAGCGACAGAACUACAGAAAUGUAGUUGACGAGGAGGAGGUUUAUCGAGUUUUCGGCGGAUGCCUCCAAA
kcat (glucosamine-6-phosphate [1]): 1.35e-05 ± 4.5e-06 s⁻¹
self-cleavage kobs at 40 uM GlcN6P (glucosamine-6-phosphate [3]): < 1e-05 s⁻¹
self-cleavage kobs at 160 uM GlcN6P (glucosamine-6-phosphate [4]): < 1e-05 s⁻¹

AUAAAAGCGCCAGAACUACAGAAAUGUAGUUGUCGAGGAGGAGGUGUAUCGAAUUUUCGGCGGAUGCCUCCAAA
kcat (glucosamine-6-phosphate [1]): 1.23e-05 ± 2.7e-06 s⁻¹
self-cleavage kobs at 40 uM GlcN6P (glucosamine-6-phosphate [3]): < 1e-05 s⁻¹
self-cleavage kobs at 160 uM GlcN6P (glucosamine-6-phosphate [4]): < 1e-05 s⁻¹

AUAAAAGCGCCAGAACUACAGAAAUGUAGUUGUCGAGGAGGAGGUUCAUCGAAUUUUCGGCGGAUGCCUCCAAA
kcat (glucosamine-6-phosphate [1]): 3.28e-05 ± 1.2e-05 s⁻¹
self-cleavage kobs at 40 uM GlcN6P (glucosamine-6-phosphate [3]): < 1e-05 s⁻¹
self-cleavage kobs at 10000 uM GlcN6P (glucosamine-6-phosphate [7]): 3.01e-05 ± 1.1e-05 s⁻¹

AUAAAAGCGCUAGCACUACAGAAAUGUAGUUGACGAGGAGGAGGUUUAUCGAAUUUUCGGCGGAUGCCUUCAAA
kcat (glucosamine-6-phosphate [1]): 0.000322 ± 0.00016 s⁻¹
self-cleavage kobs at 640 uM GlcN6P (glucosamine-6-phosphate [5]): 0.000221 ± 4.6e-05 s⁻¹
self-cleavage kobs at 2500 uM GlcN6P (glucosamine-6-phosphate [6]): 0.000599 ± 0.00016 s⁻¹
self-cleavage kobs at 10000 uM GlcN6P (glucosamine-6-phosphate [7]): 0.000224 ± 6.8e-05 s⁻¹
